{"source": "paper PMC10314921", "about": "“Eltrombopag directly activates BAK and induces apoptosis” (Cell Death & Disease, 2023)", "parents": {"B1": {"name": "BAK lacking its transmembrane domain (BAKΔTM), wild type [human] / itself (parent)", "chain": "EPALPSASEEQVAQDTEEVFRSYVFYRHQQEQEAEGVAAPADPEMVTLPLQPSSTMGQVGRQLAIIGDDINRRYDSEFQTMLQHLQPTAENAYEYFTKIATSLFESGINWGRVVALLGFGYRLALHVYQHGLTGFLGQVTRFVVDFMLHHCIARWIAQRGGWVAALNLGNG"}}, "data": [{"variants_of": "B1", "test": "size exclusion chromatography (BAK oligomerization assay)", "settings": "with itself; with Eltro (3.4 mM in panels a, b); CHAPS buffer, 1 h at 25 °C; Superdex75; parent: 54; read off a plot", "units": {"screen value": "%"}, "values": [{"variant": "EPALPSASEEQVAQDTEEVFRSYVFYRHQQEQEAEGVAAPADPEMVTLPLQPSSTMGQVGRQLAIIGDDINRRYDSEFQTMLQHLQPTAENAYEYFTKIATSLFESGINWGRVVALLGFGYRLALHVYQHGLTGFLGQVTAFVVDFMLHHCIARWIAQRGGWVAALNLGNG", "screen value": 42}, {"variant": "EPALPSASEEQVAQDTEEVFRSYVFYRHQQEQEAEGVAAPADPEMVTLPLQPSSTMGQVGRQLAIIGDDINRRYDSEFQTMLQHLQPTAENAYEYFTKIATSLFESGINWGRVVALLGFGYRLALHVYQHGLTGFLGQVTEFVVDFMLHHCIARWIAQRGGWVAALNLGNG", "screen value": 39}]}]}
